Results published in PMC3411106, “Structural analysis of the human SYCE2–TEX12 complex provides molecular insights into synaptonemal complex assembly” (Open Biology, 2012).
Blank lines part the entries; values can stand above or below the molecule they belong to.

T1: MBP–SYCE2 (1–218) (human, UniProt Q6PIF2 1-218)
T1 construct: Tetramer by SEC–MALS; also called full-length SYCE2; source: E. coli Rosetta 2 (DE3); co-expressed (pRSFDuet-1), in clarified lysate for the pull-down; individually expressed, purified on amylose resin for SEC–MALS; not shown: MBP, N-terminal, kept
T1 sequence (looked up): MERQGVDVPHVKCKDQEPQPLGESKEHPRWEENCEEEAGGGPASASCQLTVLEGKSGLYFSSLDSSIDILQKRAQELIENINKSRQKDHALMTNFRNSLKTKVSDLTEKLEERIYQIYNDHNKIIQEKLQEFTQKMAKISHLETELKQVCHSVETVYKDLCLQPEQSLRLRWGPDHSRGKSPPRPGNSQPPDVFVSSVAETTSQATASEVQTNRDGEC

T2: MBP–SYCE2_(57–88) (human, UniProt Q6PIF2 57-88)
T2 construct: human SYCE2, residues 57–88 (α1 region); Monomer by SEC–MALS; also called α1 region of SYCE2; source: E. coli Rosetta 2 (DE3); co-expressed (pRSFDuet-1), in clarified lysate for the pull-down; individually expressed, purified on amylose resin for SEC–MALS; not shown: MBP, N-terminal, kept
T2 chain (looked up): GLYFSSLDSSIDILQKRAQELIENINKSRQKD

B1: SYCE2_(57–165), tag cleaved (domain or fragment, human, UniProt Q6PIF2 57-165, looked up)
chain: GLYFSSLDSSIDILQKRAQELIENINKSRQKDHALMTNFRNSLKTKVSDLTEKLEERIYQIYNDHNKIIQEKLQEFTQKMAKISHLETELKQVCHSVETVYKDLCLQPE
notes: also called central conserved region of SYCE2; source: E. coli Rosetta 2 (DE3), co-expressed with TEX12 constructs, co-purified (Ni–NTA, amylose, TEV cleavage, Resource Q); not shown: MBP, N-terminal, cleaved
B2: TEX12_(49–123), tag cleaved (domain or fragment, human, UniProt Q9BXU0 49-123, looked up)
chain: KDEALEKDLNDVSKEINLMLSTYAKLLSERAAVDASYIDEIDELFKEANAIENFLIQKREFLRQRFTVIANTLHR
notes: not shown: His-tag, N-terminal, cleaved
B3: MBP-TEX12_(49–123) (domain or fragment, human, UniProt Q9BXU0 49-123, looked up)
chain: B2 chain
notes: Dimer by SEC–MALS; source: E. coli Rosetta 2 (DE3), individually expressed, purified on amylose resin; not shown: MBP, N-terminal, kept
B4: MBP-TEX12_(24–123) (domain or fragment, human, UniProt Q9BXU0 24-123, looked up)
chain: VPDSPQLSSLGKSDSSFSEISGLFYKDEALEKDLNDVSKEINLMLSTYAKLLSERAAVDASYIDEIDELFKEANAIENFLIQKREFLRQRFTVIANTLHR
notes: as for B3
B5: TEX12 (1–123), tag cleaved (natural protein, human, UniProt Q9BXU0 1-123, looked up)
chain: MMANHLVKPDNRNCKRPRELESPVPDSPQLSSLGKSDSSFSEISGLFYKDEALEKDLNDVSKEINLMLSTYAKLLSERAAVDASYIDEIDELFKEANAIENFLIQKREFLRQRFTVIANTLHR
notes: as for B2
B6: MBP–TEX12_(1–123) (natural protein, human, UniProt Q9BXU0 1-123, looked up)
chain: B5 chain
notes: Homodimer by SEC–MALS; source: E. coli Rosetta 2 (DE3), individually expressed, purified on amylose resin; not shown: MBP, N-terminal, kept
B7: His–TEX12 (1–123) (natural protein, human, UniProt Q9BXU0 1-123, looked up)
chain: B5 chain
notes: source: E. coli Rosetta 2 (DE3), co-expressed (pRSFDuet-1), in clarified lysate; not shown: His-tag, N-terminal, kept

Key:
[1] = molecular target: His–SYCE2 (1–218) (human) (UniProt Q6PIF2); assay: SEC-MALS; 100 µl at 1–5 mg ml^−1 on Superdex 200 10/300 GL; 20 mM Tris pH 8.0, 150 mM KCl, 2 mM DTT; purified complexes or purified fusion proteins
MBP–SYCE2 (1–218) [2] = molecular target: T1, MBP–SYCE2 (1–218); assay: as above
[3] = molecular target: the molecule itself; assay: AUC; sedimentation velocity of co-purified, tag-cleaved complexes; SYCE2_(57–165)–TEX12 at 57 µM, SYCE2_(57–165)–TEX12_(49–123) at 289 µM; 20 mM Tris pH 8.0, 145 mM KCl, 2 mM DTT; 30 000 r.p.m., 20°C; c(S) fit
[4] = molecular target: B1; assay: SDS–PAGE band densitometry of the purified complex; Coomassie-stained SDS–PAGE of the co-purified, tag-cleaved complex; densitometry with IMAGEJ; details: both partners purified
[5] = molecular target: the molecule itself; assay: SEC-MALS; 100 µl at 1–5 mg ml^−1 on Superdex 200 10/300 GL; 20 mM Tris pH 8.0, 150 mM KCl, 2 mM DTT; purified complexes or purified fusion proteins
MBP–SYCE2_(57–88) = molecular target: T2, MBP–SYCE2_(57–88); assay: pull-down; amylose pull-down after co-expression in bacteria of MBP-fusion SYCE2 constructs (bait) with His-tagged TEX12 or SYCE2 constructs; lysis in 20 mM Tris pH 8.0, 500 mM KCl, 2 mM DTT; 1 h at 4°C; maltose elution; Coomassie-stained SDS–PAGE; details: partners not purified
MBP–SYCE2 (1–218) [6] = molecular target: T1, MBP–SYCE2 (1–218); assay: as above; details: partners not purified

stoichiometry N [1]: 4
Molecule: His–SYCE2 (1–218) (from UniProt Q6PIF2 1-218) (natural protein)

stoichiometry N (MBP–SYCE2 (1–218) [2]): 4
Molecule: MBP–SYCE2 (1–218) (from UniProt Q6PIF2 1-218) (natural protein)

Molecule: B1
binding result [3]: binds

Molecule: B2
stoichiometry N [4]: 1

Molecule: B3
stoichiometry N [5]: 2

Molecule: B4
stoichiometry N [5]: 2

Molecule: B5
stoichiometry N [4]: 1

Molecule: B6
stoichiometry N [5]: 2

Molecule: B7
integrated intensity of the TEX12 band relative to 57–165 (MBP–SYCE2_(57–88)): 96% | integrated intensity of the TEX12 band relative to 57–165 (MBP–SYCE2 (1–218) [6]): 62%
